This data set concerns the molecule itself. As to the kind of experiment: not described (homodimerisation stated in Example 7).

B1: STAT5A 1*7 (other)
chain: MAGWIQAQQLQGDALRQMQVLYGQHFPIEVRHYLAQWIESQPWDAIDLDNPQDRGQATQLLEGLVQELQKKAEHQVGEDGFLLKIKLGHYATQLQNTYDRCPMELVRCIRHILYNEQRLVREANNCSSPAGVLVDAMSQKHLQINQRFEGLRLITQDTENELKKLQQTQEYFIIQYQESLRIQAQFAQLGQLNPQERMSRETALQQKQVSLETWLQREAQTLQQYRVELAEKHQKTLQLLRKQQTIILDDELIQWKRRQQLAGNGGPPEGSLDVLQSWCEKLAEIIWQNRQQIRRAEHLCQQLPIPGPVEEMLAEVNATITDIISALVTSTFIIEKQPPQVLKTQTKFAATVRLLVGGKLNVHMNPPQVKATIISEQQAKSLLKNENTRNECSGEILNNCCVMEYHQATGTLSAHFRNMSLKRIKRADRRGAESVTEEKFTVLFESQFSVGSNELVFQVKTLSLPVVVIVHGSQDHNATATVLWDNAFAEPGRVPFAVPDKVLWPQLCEALNMKFKAEVQSNRGLTKENLVFLAQKLFNISSNHLEDYNSMSVSWSQFNRENLPGWNYTFWQWFDGVMEVLKKHHKPHWNDGAILGFVNKQQAHDLLINKPDGTFLLRFSDSEIGGITIAWKFDSPDRNLWNLKPFTTRDFSIRSLADRLGDLNYLIYVFPDRPKDEVFAKYYTPVLAKAVDGYVKPQIKQVVPEFVNAFTDAGASATYMDQAPSPVVCPQPHYNMYPPNPDPVLDQDGEFDLDESMDVARHVEELLRRPMDSLDARLSPPAGLFTSARSSLS
notes: Expressed from the retrovirus vector GCsam-IRES-EGFP; also called STAT5 1*7; active STAT5 variant
For the protein B1, the binding result is “binds”.

The values are drawn from patent publication US20060177932A1 (published 2006).
